For six molecules, binding result and Kd results are on record in article PMC8284803.

Test in all cases: EMSA
(In EMSA bound probe runs differently from free probe, usually more slowly.)

Data set [1] deals with hMSH4 (hMutSγ subunit);hMSH5 (hMutSγ subunit) (Homo sapiens;Homo sapiens, UniProt O15457;O43196 1-936;1-834, |).
Data set [2] concerns the target T1, hMLH1 (hMutLγ subunit);hMLH3 (hMutLγ subunit) (Homo sapiens;Homo sapiens, UniProt P40692;Q9UHC1 1-756;1-1453, |).
Data set [3] addresses T1, hMLH1 (hMutLγ subunit);hMLH3 (hMutLγ …). This is another data set of the same source.
Data set [4] shares this target. The source holds these as a separate data set.

Read-outs that look alike come from different tables or passages of the source.

B1: HJ (Holliday junction) (structured_DNA)
DNA 1: CTAGTATAGAGCCGGCGCGCCATGTCTAGATAGCGTTAGGTCTGCCGAATAGTACTACTCGGATCCCGAGCGAACCACGC
DNA 2: GCGTGGTTCGCTCGGGATCCGAGTAGTACTATTCGGCAGAGGATTCGAATAGGCCTAATCGAATTCCGCCATCGATGCAC
DNA 3: GTGCATCGATGGCGGAATTCGATTAGGCCTATTCGAATCCAGACGCGAGTAGATCTTCACGGTACCCGCGGTTACCCGTG
DNA 4: CACGGGTAACCGCGGGTACCGTGAAGATCTACTCGCGTCTCCTAACGCTATCTAGACATGGCGCGCCGGCTCTATACTAG
For the molecule B1, the binding result in data set [1] is “binds”. This molecule also gave a Kd in data set [2] of approximately 38 nM.

B2: 80mer with 20 nt gap (mixed)
DNA 1: B1 DNA 1
DNA 2: GCGTGGTTCGCTCGGGATCCGAGTAGTACT
DNA 3: TCTAGACATGGCGCGCCGGCTCTATACTAG
For B2, the binding result in data set [3] is listed as “binds”.

B3: gHJ (gapped HJ) (structured_DNA)
DNA 1: B1 DNA 1
DNA 2: B1 DNA 2
DNA 3: B1 DNA 3
DNA 4: CACGGGTAACCGCGGGTACCGTGAAGATCTACTCGCGTCTCCTAA
DNA 5: CCGGCTCTATACTAG
In the case of B3, the Kd in data set [2] was approximately 16 nM.

B4: 80mer with 10 nt gap (mixed)
DNA 1: B1 DNA 1
DNA 2: GCGTGGTTCGCTCGGGATCCGAGTAGTACTATTCG
DNA 3: CGCTATCTAGACATGGCGCGCCGGCTCTATACTAG
As for B4, the binding result in data set [3] was “no binding”.

B5: 80mer with 40 nt gap (mixed)
DNA 1: B1 DNA 1
DNA 2: GCGTGGTTCGCTCGGGATCC
DNA 3: GCGCGCCGGCTCTATACTAG
Turning to B5, in data set [4], the binding result was “binds”.

B6: 80mer with 5 nt gap (mixed)
DNA 1: B1 DNA 1
DNA 2: GCGTGGTTCGCTCGGGATCCGAGTAGTACTATTCGG
DNA 3: CTAACGCTATCTAGACATGGCGCGCCGGCTCTATACTAG
Regarding B6, in data set [3], the binding result is listed as “no binding”.

Broadly, the Kd is a measure of binding affinity in units of concentration. A lower Kd goes with higher affinity.
